Test results as given in paper doi:10.1101/2022.06.16.496122.

Target: Trypanosoma brucei ADAT3 (full-length, His-tagged) (Trypanosoma brucei)
Experiment: cryo-EM structure

“Trypanosoma brucei ADAT2 (full-length, A87G/C117S) (enzyme)” showed a stoichiometry N of 1.
